Our source for the 阳性百分数 values is patent CN115536747A.

This assay concerns the target 人TROP2 on cells (表达TROP2的CHO细胞系; MCF, MDA-MB-231, MDA-MB-468, HCC1395 breast cancer cells) (human) (UniProt P09758). The assay is described as follows: flow cytometry, scFv-Fc on CHO cells expressing TROP2. On the technique in general: A flow cytometer gives signals particle by particle.
Sequence of UniProt P09758 (P09758 27-323): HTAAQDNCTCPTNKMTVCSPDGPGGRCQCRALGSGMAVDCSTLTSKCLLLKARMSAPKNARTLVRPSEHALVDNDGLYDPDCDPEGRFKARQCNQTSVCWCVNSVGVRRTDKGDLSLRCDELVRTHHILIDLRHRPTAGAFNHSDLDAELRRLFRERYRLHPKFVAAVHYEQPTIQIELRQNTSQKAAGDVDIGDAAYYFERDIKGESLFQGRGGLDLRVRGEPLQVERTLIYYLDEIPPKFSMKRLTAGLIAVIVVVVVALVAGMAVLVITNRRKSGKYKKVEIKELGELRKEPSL

B1: 1F7 scFv-Fc蛋白 (from pFH-1F7; scFv fused to human IgG4 Fc) (Fc fusion, not shown: a dimerising Fc or GST)
chain: QVQLVQSGAEVKKPGASVKVSCKASGYTFTSYGINWVRQATGRGLEWMGWMNPNSGNTGYAQKFQGRVTITADESTSTAYMELSSLRSEDTAVYYCARPNTGGDGAFDIWGQGTMVTVSSGGSSRSSSSGGGGSGGGGDIQLTQSPSSVSASVGDRVTITCRASQGISSWLAWYRQKPGKAPKLLIYAASSLQSGVPSRFSGSGSGTDFTLTISSLQPEDFATYYCQQANSFPITFGQGTRLEIK
B1 showed a 阳性百分数 of 89.3%.
